This is an account of results in PMC5609567 (Biochemical Pharmacology, 2017).

Holding throughout (test): Radioligand binding
Assay [1] has as its system V198A RAMP2/CLR. Also on record: species or system human. Conditions: 125I-AM bound (span of displacement curve) normalized to WT, n = 3. The protocol:
(§1) This was performed on membranes made from transfected Cos7 cells, essentially as described elsewhere. […] Incubations were terminated by centrifugation.
Radioligand binding data were analysed in Graphpad Prism as described for the cAMP assays. […] Thus for each mutant, the total specific binding relative to WT was calculated from the span values and the 95% confidence limits were calculated. This relies on the Bmax value not changing; while this is consistent with our ELISA data, we cannot rule out a contribution to […] arising from a small change in receptor expression.

Assay [2] deals with T1, H374A RAMP1/CLR (Homo sapiens, UniProt O60894+Q16602, H374A).
T1 construct: expressed in transfected cells; host or cells: Cos7 (membranes)
T1 sequence (Q16602 23-461 H374A): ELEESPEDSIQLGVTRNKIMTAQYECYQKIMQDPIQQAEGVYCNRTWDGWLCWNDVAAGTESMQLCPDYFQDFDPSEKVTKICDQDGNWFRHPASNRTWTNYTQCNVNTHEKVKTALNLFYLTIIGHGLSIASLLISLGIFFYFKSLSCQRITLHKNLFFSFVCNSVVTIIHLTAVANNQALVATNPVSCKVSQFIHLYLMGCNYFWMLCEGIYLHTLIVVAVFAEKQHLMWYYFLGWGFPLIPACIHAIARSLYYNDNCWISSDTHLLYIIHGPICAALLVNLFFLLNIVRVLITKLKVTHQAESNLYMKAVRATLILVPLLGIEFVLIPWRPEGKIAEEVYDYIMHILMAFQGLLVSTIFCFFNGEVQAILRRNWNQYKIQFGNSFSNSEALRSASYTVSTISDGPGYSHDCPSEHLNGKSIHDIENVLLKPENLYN
T1 sequence (O60894 27-148): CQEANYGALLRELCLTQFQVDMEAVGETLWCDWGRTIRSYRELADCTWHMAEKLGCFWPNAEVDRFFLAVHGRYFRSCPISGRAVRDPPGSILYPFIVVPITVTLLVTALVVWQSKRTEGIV
Conditions: H374A CLR/RAMP1, Cos7 membranes. The protocol: as §1
(§2) Radioligand binding data were analysed in Graphpad Prism as described for the cAMP assays.

The target of assay [3] is T2, E348A RAMP2/CLR (Homo sapiens, UniProt O60895+Q16602, E348A).
T2 construct: expressed in transfected cells; host or cells: Cos7 (membranes)
T2 sequence (Q16602 23-461 E348A): as the sequence (Q16602 23-461 H374A) above, with E326A, A352H counted along it
T2 sequence (O60895 43-175): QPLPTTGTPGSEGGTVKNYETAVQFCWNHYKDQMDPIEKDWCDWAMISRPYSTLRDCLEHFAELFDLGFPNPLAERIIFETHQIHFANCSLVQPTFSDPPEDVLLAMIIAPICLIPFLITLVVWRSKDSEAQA
The note with it: 125I-AM bound (span of displacement curve) normalized to WT, n = 3. The protocol:
as §1, §2

Assay [4] deals with T3, N305A RAMP2/CLR (Homo sapiens, UniProt O60895+Q16602, N305A).
T3 construct: expressed in transfected cells; host or cells: Cos7 (membranes)
T3 sequence (Q16602 23-461 N305A): as the sequence (Q16602 23-461 H374A) above, with N283A, A352H counted along it
T3 sequence (O60895 43-175): as the sequence (O60895 43-175) above
The note with it: 125I-AM bound (span of displacement curve) normalized to WT, n = 3. The protocol: as §1, §2

Assay [5] deals with T4, F349A RAMP2/CLR (Homo sapiens, UniProt O60895+Q16602, F349A).
T4 construct: expressed in transfected cells; host or cells: Cos7 (membranes)
T4 sequence (Q16602 23-461 F349A): as the sequence (Q16602 23-461 H374A) above, with F327A, A352H counted along it
T4 sequence (O60895 43-175): as the sequence (O60895 43-175) above
The note with it: 125I-AM bound (span of displacement curve) normalized to WT, n = 3. The protocol:
as §1, §2

Assay [6] has as its target T5, M230A RAMP2/CLR (Homo sapiens, UniProt O60895+Q16602, M230A).
T5 construct: expressed in transfected cells; host or cells: Cos7 (membranes)
The note with it: 125I-AM bound (span of displacement curve) normalized to WT, n = 3. The protocol:
as §1, §2

Assay [7] has as its target T6, WT RAMP1/CLR (Homo sapiens, UniProt O60894+Q16602).
T6 construct: expressed in transfected cells; host or cells: Cos7 (membranes)
The note with it: WT CLR/RAMP1, Cos7 membranes. The protocol:
as §1, §2

T6 sequence (Q16602 23-461): as the sequence (Q16602 23-461 H374A) above, with A352H counted along it
T6 sequence (O60894 27-148): as the sequence (O60894 27-148) above
T5 sequence (Q16602 23-461 M230A): as the sequence (Q16602 23-461 H374A) above, with M208A, A352H counted along it
T5 sequence (O60895 43-175): as the sequence (O60895 43-175) above

Consider “[^125I]-human (13–52) iodotyrosyl^52adrenomedullin [125I-AM]”, for which the “% Ligand bound” value in assay [1] amounted to 116.2 ± 3.7 %; in assay [3] it was 147.9 ± 2.9 %; in assay [4], 62.7 ± 4.7 %; in assay [5] it was 132.3 ± 4.3 %; in assay [6], 109.4 ± 3.7%. The “specific binding of 125I-AM” value in assay [2] was determined as 5243 ± 112 dpm/mg; in assay [7], 78 ± 208 dpm/mg.
